The test system of this assay is MDA-MB-231 cells. In words: Anticancer effect: cell viability (proliferation assay kit). The assay is classed as cell-based. The settings on record: various concentrations, 72 hours after the conjugate treatment, FIG. 11. Here is the method:
MDA-MB-231 cells were incubated at the amount of about 5,000-8,000 cells/well in 96 well plate for 24 hours, and then, treated with each of the obtained conjugates MTS-BAA-p16M7 and Tat-p16M7 at various concentrations (refer to FIG. 11). 24 hours or 72 hours after, the viability of the cells was measured by reading the fluorescent intensity of viable cells using titer® proliferation assay kit (Promega) according to manufacturer's manual. The results were normalized based on the results from a control (non-treated) group, and plotted (the value of the control group: “1”). The experiment was conducted in triplicate, and the error was treated using a standard deviation.
The obtained results (results obtained at 72 hours after the conjugate treatment) are illustrated in FIG. 11.

The source of these data is patent US20150119340A1, “FUSION PEPTIDE AND USE THEREOF FOR CELL MEMBRANE PENETRATING” (Samsung Electronics Co., Ltd., priority 2013, published 2015).

B1: Tat-p16M7: Comparison conjugate of TAT peptide and p16M7 (SEQ ID NO: 20-SEQ ID NO: 16) (protein)
chain: RKKRRQRRRMEPAAGSSMEPSADKLATAAARGRVEEVRALLEAGADPNAPNSYGRRPIQVMMMGSARVAELLLKHGAEPNSADPATSTRPVHDAAREGFLDTLVVLHRAGARLDARDAWGRTPVDLAEELGHRDVARYLRAAAGGTRGSNHARIDAAEGPSDIPD
modifications: Synthetic (TAT peptide); Synthetic (p16 variant (p16M7))
Take B1: the “inhibitory effect on cancer cell proliferation (relative viability)” value was “nearly no inhibitory effect on cancer cell proliferation”.
